Source: patent US10858396B2, “HER2 peptide regents and methods” (THE REGENTS OF THE UNIVERSITY OF MICHIGAN, priority 2015, dated 2020)
“Also recorded” adds a separate entry of the source. Ends that are not written are not given here.

Legend:
HER2-mediated signaling = test: Effect of HER2 peptide on cell signaling (western blot); format: cell-based, human; settings: 48 hours
Method: SKBR3 cells are commonly used to evaluate HER2 signaling, and were grown in 6 well plates to ˜60% confluence. Unlabeled KSP* peptide was added to separate wells at concentrations of 5 and 100 μM. Lapatinib, a tyrosine kinase inhibitor, was used as a positive control and was added in concentrations of 1, 25, 100 and 1000 nM. Lapatinib stock solution starting at 1 mg/mL was diluted in DMSO and PBS. 1% DMSO treated cells and untreated cells were used as control. After 48 hours following treatment, the cells were harvested for western blot analysis. Anti-HER2 antibody (Cell Signaling, #2165), phospho-HER2/ErbB2 (Tyr1248) antibody (Cell Signaling, #2247), anti-AKT (Cell Signaling, #4691P), anti-ERK1/2 (Cell Signaling, #4695P), anti-phospho-AKT (pS473), (Cell Signaling, #4060P), anti-phospho-ERK1/2 (Cell Signaling, #4370P) and anti-tubulin (Invitrogen, #32-2600) were used per manufacturer's instructions.

HER2 [1] = molecular target: T1, HER2 (Homo sapiens, UniProt P04626); test: Competition for peptide reagent binding with unlabeled KSP* on HT29 cells; parameters: host or cells: HT29; settings: unlabeled KSP* 0, 10, 25, 50, 100 μM, then 2 μM KSP*-Cy5.5
Method: Specific binding of KSP*-Cy5.5 to HT29 cells was validated on competitive inhibition with unlabeled KSP* peptide reagent. ˜7500 HT29 cells were grown to ˜70% confluence on cover slips in triplicate. Unlabeled KSP* peptide at 0, 10, 25, 50, and 100 μM were added and incubated with the cells for 30 min at 4° C. The cells were washed 3× with PBS, and further incubated with 2 μM of KSP*-Cy5.5 for another 30 min at 4° C. The cells were washed 3× with PBS and fixed with 4% PFA for 10 min. The cells were washed with PBS and mounted with ProLong Gold reagent containing DAPI (Invitrogen). Confocal fluorescence images were collected at each concentration, and intensities from 3 independent images were quantified using custom Matlab (Mathworks) software.

HER2 [2] = molecular target: T1, HER2; test: Confocal microscopy of FITC-labeled candidate peptides binding to Flo1-HER2 and Q-hTERT (control) cells; format: cell-based; settings: FITC-labeled peptide 10 μM, Flo1-HER2 relative to Q-hTERT cells
Method: Flo-1-Her2 and Q-hTERT cells were seeded with ˜7,500 cells in 12-well plates with 1.5 mm thick glass cover slides, and grown to ˜70% confluence. The cells were gently washed with cold PBS before adding the peptide. 10 μM of FITC-labeled peptide was added to each well and incubated at 4° C. for 1 hour. After incubation, the cells were washed 3× with PBS, fixed in ice-cold 4% PFA for 10 min, and washed 1× with PBS. Subsequently, the cells were embedded on microscope slides with ProLong Gold reagent containing DAPI (Invitrogen), and the slides where analyzed with a Leica TCS SP5 confocal microscope using 63× oil immersion objective (Leica Microsystems, Leider Lane IL). The FITC-labeled peptides and anti-HER2 antibody were tested in quadruplicate.

[3] = molecular target: T2, colonic adenomas that over express HER2 (Mus musculus, UniProt P70424); test: In vivo endoscopic NIR imaging of mouse colonic adenomas, topical peptide reagent; settings: CPC;Apc mice
T2 construct: validate over expression of HER2 in mouse colonic dysplasia; from tissue; host or cells: colonic adenomas / colon of CPC;Apc mice (in vivo, excised colon, fixed sections)
Method: Mouse imaging studies were performed with approval of the University of Michigan Committee on the Use and Care of Animals (UCUCA). The mice were housed in pathogen-free conditions and supplied water ad libitum under controlled conditions of humidity (50±10%), light (12/12 hour light/dark cycle) and temperature (25° C.). Anesthesia was induced and maintained via a nose cone with inhaled isoflurane mixed with oxygen at a concentration of 2-4% at a flow rate of ˜0.5 L/min. The colon was first rinsed with tap water to remove mucous and debris. White light illumination was used first to identify anatomic landmarks, including polyps, mucosal folds, colonic segment, and distance of endoscope tip from anus, to register the in vivo images with histology. […] During imaging, we recorded the 1) distance between the endoscope tip and the anus and 2) clockwise location of each region of high intensity. […]
White light and fluorescence videos were exported in avi format with 24 (RGB) and 8 (grayscale) bit digital resolution for the color and fluorescence images, respectively. […] On the fluorescence images, 3 regions of interest (ROI) with dimensions of 25×25 pixels were picked to represent a range of staining for normal and diseased tissues and averaged. The mean intensities within these ROI were determined to calculate the target to-background (T/B) ratio.

HER2 [4] = molecular target: T1, HER2; test: Confocal fluorescence microscopy of peptide reagent binding to HT29 and SW480 cells; format: cell-based; parameters: host or cells: HT29, SW480; settings: 5 μM, 30 min at 4° C.
Method: Cells were washed with PBS and incubated with 5 μM of KSP*-Cy5.5 and PPS*-Cy5.5 for 30 min at 4° C. The cells were then washed 3× in PBS, fixed with ice cold 4% paraformaldehyde (PFA) for 10 min, washed 1× with PBS, and then mounted on glass slides with ProLong Gold reagent containing DAPI (Invitrogen). Confocal fluorescence images were collected with Cy5.5, and DAPI filters (Leica Inverted SPSX Confocal Microscope System). For antibody staining, the cells were pre-fixed with cold methanol for 10 min at −20° C. and blocked with 2% BSA for 30 min at RT. Cells were incubated with 1:450 dilution of anti HER2 antibody overnight at 4° C. The cells were washed 3× with PBS and processed for secondary staining. Goat-anti rabbit Alexa-Fluor 488 (AF488) was added to the cells and incubated for 1 hour at RT. Cells were further washed 3× with PBS and mounted onto glass cover slips. Fluorescence intensities from 3 independent images were quantified using custom Matlab (Mathworks) software.

[5] = molecular target: T3, HER2 over expressed by mouse colonic dysplasia (Mus musculus, UniProt P70424); test: Peptide reagent immunofluorescence on mouse colonic adenoma sections; settings: 2 μM, 10 min at RT, confocal microscopy
T3 construct: validate over expression of HER2 in mouse colonic dysplasia; from tissue; host or cells: colonic adenomas / colon of CPC;Apc mice (in vivo, excised colon, fixed sections)
Method: Specimens of mouse colonic adenoma were formalin fixed and processed, as described previously. Serial 5 μm sections were incubated with 2 μM of each peptide for 10 min at RT. The sections were washed 3× with PBS, and mounted with Prolong Gold reagent containing DAPI (Invitrogen). Adjacent sections were processed for histology (H&E).

ErbB2 (HER2) = molecular target: T4, ErbB2 (HER2) (Homo sapiens, UniProt P04626); test: Staining of FFPE human Barrett's esophagus specimens with peptide reagents; settings: excised human specimens, 5 μM, 10 min
T4 construct: specimens of human esophagus were obtained from an archived tissue bank; from tissue; host or cells: FFPE human esophagus (SQ, BE, LGD, HGD, EAC)
Method: Formalin-fixed, paraffin-embedded (FFPE) specimens of human esophagus were obtained from an archived tissue bank. 5 μm thick sections were cut, and mounted onto glass slides (Superfrost Plus, Fischer Scientific). The tissues were deparaffinized, and antigen retrieval was performed. The sections were blocked with protein serum for 15 min at room temperature followed by rinsing with PBS. The sections were then stained with either KSP*-Cy5.5 or RHP*-Cy5.5 at 5 μM concentration for 10 min at room temperature. The sections were then washed 3× for 3 min with PBS and further incubated with anti-HER2 antibody overnight at 4° C. Sections were washed 3× with PBST and mounted with Prolong Gold reagent containing DAPI (Invitrogen) using #1 cover glass ([…]).

T2 sequence (P70424 23-1256): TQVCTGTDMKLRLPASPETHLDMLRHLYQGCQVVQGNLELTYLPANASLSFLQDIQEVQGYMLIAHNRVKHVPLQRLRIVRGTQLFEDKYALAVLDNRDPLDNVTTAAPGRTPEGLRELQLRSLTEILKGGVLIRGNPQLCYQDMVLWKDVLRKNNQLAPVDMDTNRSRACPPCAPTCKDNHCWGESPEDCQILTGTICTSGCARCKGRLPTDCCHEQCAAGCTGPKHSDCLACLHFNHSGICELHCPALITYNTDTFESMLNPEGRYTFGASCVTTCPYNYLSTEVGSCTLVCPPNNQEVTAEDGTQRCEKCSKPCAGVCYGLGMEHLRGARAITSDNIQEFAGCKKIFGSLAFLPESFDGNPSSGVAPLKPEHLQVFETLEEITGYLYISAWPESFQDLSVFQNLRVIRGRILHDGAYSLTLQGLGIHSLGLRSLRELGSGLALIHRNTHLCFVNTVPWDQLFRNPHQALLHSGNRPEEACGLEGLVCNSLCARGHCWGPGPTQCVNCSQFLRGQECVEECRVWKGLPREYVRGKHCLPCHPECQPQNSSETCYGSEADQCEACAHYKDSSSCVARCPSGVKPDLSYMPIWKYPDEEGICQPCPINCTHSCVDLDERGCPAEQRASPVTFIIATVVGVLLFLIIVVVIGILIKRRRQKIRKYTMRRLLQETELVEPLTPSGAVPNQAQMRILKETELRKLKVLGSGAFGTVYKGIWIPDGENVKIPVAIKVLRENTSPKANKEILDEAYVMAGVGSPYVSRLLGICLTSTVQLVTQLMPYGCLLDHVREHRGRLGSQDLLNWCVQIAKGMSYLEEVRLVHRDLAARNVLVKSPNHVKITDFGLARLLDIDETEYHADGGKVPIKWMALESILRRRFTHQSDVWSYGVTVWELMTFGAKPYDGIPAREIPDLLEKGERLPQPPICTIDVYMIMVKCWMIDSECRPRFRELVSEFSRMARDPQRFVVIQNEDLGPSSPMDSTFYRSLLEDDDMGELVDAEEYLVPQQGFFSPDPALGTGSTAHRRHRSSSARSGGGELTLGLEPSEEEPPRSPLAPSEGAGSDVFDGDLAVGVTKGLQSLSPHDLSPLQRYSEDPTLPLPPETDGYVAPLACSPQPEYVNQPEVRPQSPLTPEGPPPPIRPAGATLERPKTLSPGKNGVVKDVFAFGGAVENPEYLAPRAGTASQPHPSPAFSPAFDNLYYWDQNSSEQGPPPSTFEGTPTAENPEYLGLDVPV
T3 sequence (P70424 23-1256): as above

Molecule: CS(=O)(=O)CCNCc1ccc(-c2ccc3ncnc(Nc4ccc(OCc5cccc(F)c5)c(Cl)c4)c3c2)o1 [lapatinib]
- phosphorylation of HER2 (p-HER2), AKT (p-AKT) and ERK (p-ERK) (HER2-mediated signaling; 1 to 1000 nM): reduced expression; also recorded: dose dependent reduction

Molecule: KSP*: unlabeled KSP* peptide (KSPNPRF without Cy5.5 fluorophore)
- fluorescence intensity of KSP*-Cy5.5 on competition with unlabeled peptide (HER2 [1]): decrease significantly in a concentration dependent manner
- phosphorylation of HER2 (p-HER2), AKT (p-AKT) and ERK (p-ERK) (HER2-mediated signaling; 5 and 100 μM): no change; also recorded: no reduction

Molecule: KSPNPRF (also: FITC label, site not given here) [HER2-specific peptide; FITC-labeled for candidate selection]
- mean fluorescence intensity compared with other peptide candidates (HER2 [2]): highest mean fluorescence intensity

Molecule: PPS*-Cy5.5: scrambled control peptide PPSNFKR linked to Cy5.5 via GGGSK (PPSNFKRGGGSK-{Cy5.5-NH2}; also: Cy5.5 attached via GGGSK linker, end not given here)
- mean (±std) T/B ratio ([3]; topical 100 μM, 5 min incubation, adenomas): 1.46±0.25
- NIR fluorescence signal from polyp / flat adenoma ([3]; topical administration): Minimal signal; also recorded: significantly reduced signal
- binding to cell surface on confocal microscopy (HER2 [4]): minimal binding
- staining of normal mouse colonic mucosa [5]: Minimal staining
- staining with cancer progression in Barrett's esophagus (SQ, BE, LGD, HGD, EAC) (ErbB2 (HER2)): Minimal staining
